The values below come from patent US20250281533A1 (LG CHEM, published 2025).

The assay deals with T1, mucin1 (MUC1) naturally expressed on human breast cancer cell lines (human, UniProt P15941 24-1255).
T1 construct: whole, on cells; The cell line of each entry is named under assay or readout; also called MUC1 on T47D cells; MUC1 on HCC70 cells
Description: flow cytometry (PE MFI, corrected to G03 at 380 ug/mL) on T47D cells.

T1 sequence (P15941 24-1255): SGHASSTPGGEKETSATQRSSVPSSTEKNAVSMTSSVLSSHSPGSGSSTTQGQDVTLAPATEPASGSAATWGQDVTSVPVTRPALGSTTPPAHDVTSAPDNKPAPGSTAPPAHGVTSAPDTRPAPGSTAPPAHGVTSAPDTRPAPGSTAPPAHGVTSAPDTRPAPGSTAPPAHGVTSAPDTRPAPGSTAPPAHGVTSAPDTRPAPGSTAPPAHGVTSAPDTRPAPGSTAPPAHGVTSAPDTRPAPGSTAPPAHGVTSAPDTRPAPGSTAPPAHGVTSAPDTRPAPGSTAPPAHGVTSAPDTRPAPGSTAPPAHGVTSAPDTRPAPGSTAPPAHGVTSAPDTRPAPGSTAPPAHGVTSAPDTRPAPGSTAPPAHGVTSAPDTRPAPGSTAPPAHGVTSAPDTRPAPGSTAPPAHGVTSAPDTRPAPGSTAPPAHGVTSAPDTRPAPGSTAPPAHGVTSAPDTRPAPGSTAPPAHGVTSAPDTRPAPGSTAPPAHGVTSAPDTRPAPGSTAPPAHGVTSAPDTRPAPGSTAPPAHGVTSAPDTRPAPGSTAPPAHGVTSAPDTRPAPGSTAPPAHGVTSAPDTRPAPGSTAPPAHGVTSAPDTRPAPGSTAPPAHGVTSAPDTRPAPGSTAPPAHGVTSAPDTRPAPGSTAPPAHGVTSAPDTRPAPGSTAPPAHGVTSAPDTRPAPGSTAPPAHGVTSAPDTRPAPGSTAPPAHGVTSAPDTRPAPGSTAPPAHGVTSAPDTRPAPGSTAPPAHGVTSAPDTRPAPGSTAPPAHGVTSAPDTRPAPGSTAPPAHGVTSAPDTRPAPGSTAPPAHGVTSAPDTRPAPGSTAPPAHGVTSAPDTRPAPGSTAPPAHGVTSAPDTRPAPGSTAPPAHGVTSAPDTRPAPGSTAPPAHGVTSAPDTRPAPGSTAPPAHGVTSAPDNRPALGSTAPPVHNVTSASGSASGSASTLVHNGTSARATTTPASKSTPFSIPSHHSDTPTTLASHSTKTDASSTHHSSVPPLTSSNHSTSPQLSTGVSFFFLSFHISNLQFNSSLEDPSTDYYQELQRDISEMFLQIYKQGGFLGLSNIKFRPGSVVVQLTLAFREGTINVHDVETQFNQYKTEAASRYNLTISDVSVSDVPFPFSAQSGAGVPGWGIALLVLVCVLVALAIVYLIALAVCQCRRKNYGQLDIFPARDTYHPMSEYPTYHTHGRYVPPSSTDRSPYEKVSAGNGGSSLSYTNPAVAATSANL

B1: scFv 2447_3A01 (scFv)
scFv: EVQLLESGGGLVQPGGSLRLSCAASGFTFDDYAMHWVRQAPGKGLEWVSGISWNSGSIVYADFVKGRFTISRDNAKNSLYLQMNSLRAEDTALYYCAKDISSGWYPGTFDYWGQGTLVTVSSGGGGSGGGGSGGGASSYELTQDPAVSVALGQTVRITCQGDSLRSYYASWYQQKPGQAPVLVIYGKNNRPSGIPDRFSGSSSGNTASLTVTGAQAEDEADYYCSSRDSSDDVVFGGGTQLTVL
The term EC50 denotes the midpoint of the concentration-response curve. Consider B1, for which the response was half-maximal at 11.1 µg/mL (EC50).

B2: scFv 2447_3B07 (scFv)
scFv: QVQLVESGGVVVQPGGSLRLSCAASGFTFDDYAMHWVRQAPGRGLEWVSLTSWDGGSTYYADSVKGRFTISRDNSKNSLYLQMNSLRAEDTALYYCAKDHSSGWYNGGMDVWGQGTMVTVSSGGGGSGGGGSGGGASSYELTQDPAVSVALGQTVRITCQGDSLRSYYASWYQQKPGQAPVLVIYGKNNRPSGIPDRFSGSSSGNTASLTITGAQAEDEADYYCNSRDSSGNHVVFGGGTKLTVL
In turn, B2 gave a 50% effective concentration (EC50) of 3.47 µg/mL.

B3: scFv 2447_3A08 (scFv)
scFv: EVQLVQSGAEVKKPGASVKVSCKASGYTFTSYGISWVRQAPGQGLEWMGWISAYNGNTNYAQKLQGRVTMTTDTSTSTAYMELRSLRSDDTAVYYCARDRATIFGVVTPFDYWGQGTLVTVSSGGGGSGGGGSGGGASSYELTQDPAVSVALGQTVRITCQGDSIRSYSASWYQQKPGQAPRLVIYGKNNRPSGIPDRVSGSTSGNTASLTVTGAQAEDEADYYCNSRDSSGNRVVFGGGTQLTVL
Regarding B3, it took 3.76 µg/mL to reach a half-maximal effect (EC50).

B4: scFv 2447_3H08 (scFv)
scFv: EVQLLESGGGLVQPGRSLRLSCAASGFTFDDYAMHWVRQAPGKGLEWVSGISWNSGSIDYADSVKGRFTISRDNSKNTLYLQMNSLRAEDTAVYYCARDRSSGWYTGSFDYWGQGTLVTVSSGGGGSGGGGSGGGASSYELTQDPAVSVALGQTVRITCQGDSLRSYYASWYRQKPGQAPVLVIYGKNNRPSGIPDRFSGSSSGNTASLTIIGAQAEDEADYYCQSRDSSDNRVLFGGGTKVTVL
notes: also called #10
B4 yielded an EC50 of 5.6 µg/mL. This EC50 and that of the molecule before are within 1.5-fold of each other.

B5: scFv 2447_3A09 (scFv)
scFv: EVQLLESGGGLVQPGRSLRLSCAATGFTFDDYAMHWVRQAPGKGLEWVSGISWNSGSIGYADSVKGRFTISRDNAKNSLYLQMNSLRAEDTASYYCAKDVSSGWYWYAFDIWGQGTLVTVSSGGGGSGGGGSGGGASSYELTQDPAVSVALGQTVRITCQGDSLRSYYASWYQQKPGQAPVLVIYGKNNRPSGIPGRFSGSSSGNTASLTVTGAQAEDEADYYCNSRDSGGSVVFGGGTKLTVL
notes: also called #5
B5 displayed an EC50 of 2.2 µg/mL.

B6: scFv 2447_3A12 (scFv)
scFv: EVQLVQSGAEVKKPGASVKVSCKASGYTFTSYGISWVRQAPGQGLEWMGWISAYNGNTNYAQKLRGRVTMTTDTSTSTAYMELRSLRSDDTAVYYCARDPHILTGYYRGGWFDPWGQGTLVTVSSGGGGSGGGGSGGGASSYELTQDPAVSVVLGQTVRITCQGDSLRSYYASWYQQKPGQAPVLVIYGKNNRPSGIPDRFSGSSSGNTASLTITGAQAEDEADYYCNSRDSSGNHRVFGGGTKLTVL
notes: also called #6
Take B6: the midpoint of the response, the EC50, lay at 0.75 µg/mL.

B7: scFv 2447_3H02 (scFv)
scFv: EVQLLESGGGLVQPGRSLRLSCAASGFTFDDYAMHWVRQAPGKGLEWVSGISWDSGSIGYADSVKGRFTISRDNAKNSLYLQMNSLRAEDTALYYCAKDVSSGWYWYAFDIWGQGTLVTVSSGGGGSGGGGSGGGASSYELTQDPAVSVALGQTVRITCQGDILRSYYASWYQQKPGQAPVLVIYGKNNRPSGIPDRFSGSSSGNTASLTITGAQAEDEADYYCNSRDSSGNRVVFGGGTKLTVL
notes: also called #9
Molecule B7 had an EC50 of 1.6 µg/mL.

B8: positive control scFv G03 (scFv)
scFv: EVQLVQSGAEVKKPGATVKISCKVSGYTFTSYWMHWVQQAPGKGLEWIGYINPGTGYIEYNQKFKDRVTITADKSTDTAYMELSSLRSEDTAVYYCASSTAPFDYWGQGTLVTVSSGGGGSGGGGSGGGASEIVLTQSPGTLSLSPGERATLSCKASQDIKSYLSWYQQKPGQAPRLLIYYATRLADGIPDRFSGSGSGTDFTLTISRLEPEDFAVYYCLQYDESPYTFGQGTKLEIK
B8 came in with an EC50 of 3.56 µg/mL.

B9: scFv 2447_2H08 (scFv)
scFv: EVQLVQSGAEVKKPGASVKVSCKASGYTFTNYGISWVRQAPGQGLEWMGWISAYNGNTNYAQKLQGRVTMTTDTSTSTAYMELRSLRSDDTAVYYCARDPHILTGYYRGGWFDPWGQGTTVTVSSGGGGSGGGGSGGGASSYELTQDPAVSVALGQTVTITCQGDSLRTSYAGWLQQKPGQAPVLVLYGKTSRPSGIPDRFSGSTSGNTASLTITGAQAEDEAEYFCHSRDSNDNYLEVVFGGGTKLTVL
B9 yielded an EC50 of 130 µg/mL.

B10: scFv 2447_3C08 (scFv)
scFv: EVQLLESGGGLVQPGGSLRLSCAASGFTFDDYAMHWVRQAPGKGLEWVSGISWNSGSIGYADSVKGRFTISRDNAKNSLYLQMNSLRAEDTALYYCAKDRGSGYEGNYYGMDVWGQGTLVTVSSGGGGSGGGGSGGGASSYELTQDPAVSVALGQTVRITCQGDSLRSYYASWYQQKPGQAPVLVIYGKNNRPSGIPDRFSGTTSGNTASLTITGAQAEDEADYYCNSRDSSGNHYVFGTGTKVTVL
On to B10, for which the EC50 came out at 2.04 µg/mL.
